# From PMC4982705 (Biochemical pharmacology, 2016)
# B1: wildtype human SULT1B1 (enzyme)
# chain: not shown
# Target: the molecule itself
# Test: SEC
protein,measurement,value
B1,stoichiometry N,2
